Results taken from the Immune Epitope Database (IEDB).
Each block holds one sequence with its values, some of them ahead of it.

How the values were obtained:
[1] = target: HLA-B*44:02; assay: IEDB peptide-MHC binding, purified MHC/competitive/radioactivity; filed as Kd, often an IC50 or EC50 that approximates it; ≥ and ≤ were set here for values at or beyond the usual limits of such assays
[2] = target: HLA-B*44:03; assay: as above
[3] = target: HLA-B*08:01; assay: as above
[4] = target: HLA-A*02:01; assay: as above
[5] = target: HLA-B*15:01; assay: as above
[6] = target: HLA-A*32:01; assay: as above
[7] = target: HLA-A*29:02; assay: as above
[8] = target: HLA-A*30:02; assay: as above
[9] = target: HLA-A*01:01; assay: as above
[10] = target: HLA-A*26:01; assay: as above
[11] = target: HLA-A*30:01; assay: as above
[12] = target: HLA-B*40:01; assay: as above
[13] = target: HLA-B*15:01; assay: IEDB peptide-MHC binding, purified MHC/competitive/fluorescence; filed as Kd, often an IC50 or EC50 that approximates it; ≥ and ≤ were set here for values at or beyond the usual limits of such assays
[14] = target: HLA-B*51:01; assay: as above
[15] = target: HLA-A*02:01; assay: as above; settings: source organism: Escherichia coli 536
[16] = target: HLA-A*69:01; assay: IEDB peptide-MHC binding, purified MHC/direct/fluorescence; filed as Kd, often an IC50 or EC50 that approximates it; ≥ and ≤ were set here for values at or beyond the usual limits of such assays
[17] = target: HLA-A*02:12; assay: as above; settings: source organism: Mycobacterium tuberculosis str. Haarlem
[18] = target: HLA-B*46:01; assay: as above
[19] = target: HLA-A*69:01; assay: IEDB peptide-MHC binding, purified MHC/competitive/fluorescence; filed as Kd, often an IC50 or EC50 that approximates it; ≥ and ≤ were set here for values at or beyond the usual limits of such assays; settings: source organism: Homo sapiens
[20] = target: HLA-B*57:01; assay: as above; settings: source organism: Homo sapiens
[21] = target: HLA-B*27:03; assay: as above; settings: source organism: Homo sapiens
[22] = target: HLA-A*26:01; assay: as above; settings: source organism: Homo sapiens
[23] = target: HLA-B*46:01; assay: as above; settings: source organism: Homo sapiens
[24] = target: HLA-B*15:01; assay: IEDB peptide-MHC binding, purified MHC/direct/fluorescence; filed as Kd, often an IC50 or EC50 that approximates it; ≥ and ≤ were set here for values at or beyond the usual limits of such assays
[25] = target: HLA-B*07:02; assay: IEDB peptide-MHC binding, purified MHC/competitive/radioactivity; filed as Kd, often an IC50 or EC50 that approximates it; ≥ and ≤ were set here for values at or beyond the usual limits of such assays
[26] = target: HLA-B*27:05; assay: IEDB peptide-MHC binding, purified MHC/direct/fluorescence; filed as Kd, often an IC50 or EC50 that approximates it; ≥ and ≤ were set here for values at or beyond the usual limits of such assays; settings: source organism: Mammarenavirus juninense
[27] = target: HLA-B*51:01; assay: IEDB peptide-MHC binding, purified MHC/competitive/radioactivity; filed as Kd, often an IC50 or EC50 that approximates it; ≥ and ≤ were set here for values at or beyond the usual limits of such assays; settings: source organism: Dengue virus 1 Brazil/97-11/1997
[28] = target: HLA-A*24:02; assay: as above
[29] = target: HLA-A*23:01; assay: as above
[30] = source organism: Dengue virus 4 Philippines/H241/1956
[31] = source organism: Vaccinia virus WR
[32] = source organism: Lassa virus Josiah
[33] = source organism: Vaccinia virus Copenhagen
[34] = source organism: Mammarenavirus whitewaterense
[35] = source organism: Dengue virus 3 Martinique/1243/1999
[36] = source organism: Dengue virus 2 Jamaica/1409/1983
[37] = source organism: Dengue virus 1 Brazil/97-11/1997
[38] = source organism: Escherichia coli 536
[39] = source organism: Dengue virus 1 Singapore/S275/1990
[40] = source organism: Yellow fever virus
[41] = source organism: Mammarenavirus brazilense
[42] = source organism: Mammarenavirus choriomeningitidis
[43] = source organism: Lymphocytic choriomeningitis virus (strain Armstrong)
[44] = source organism: Yellow fever virus 1899/81
[45] = source organism: SARS coronavirus Tor2

Sequence: AIAVASGLLW
Kd [1, 30]: 8800 nM
Kd [2, 30]: 908 nM

Sequence: AIKLGFKSL
Kd [3, 31]: 41.3 nM

Sequence: ALPRNMVIT
Kd [4, 32]: 12500 nM

Sequence: AMIELCGAF
Kd [5, 31]: 0.336 nM

Sequence: ATIWRSLSI
Kd [6, 33]: 1.89 nM

Sequence: ATTNAHCALL
Kd [7, 34]: ≥ 71400 nM
Kd [8, 34]: 6040 nM
Kd [9, 34]: 7670 nM
Kd [6, 34]: ≥ 69900 nM
Kd [10, 34]: ≥ 69700 nM
Kd [11, 34]: 2350 nM

Sequence: EEHNSTWHY
Kd [1, 35]: 15.3 nM
Kd [2, 35]: 68.1 nM

Sequence: EEMFKKRNL
Kd [1, 35]: 51.2 nM
Kd [12, 35]: 6310 nM
Kd [2, 35]: 483 nM

Sequence: EENVEVEIW
Kd [1, 36]: 45.1 nM
Kd [2, 36]: 39.1 nM

Sequence: EKEENLVNSL
Kd [3, 36]: 1840 nM

Sequence: EVKTCIWPKS
Kd [6, 37]: ≥ 49500 nM

Sequence: FIMIVGGLV
Kd ([4]; source organism: HIV-1 M:B_MN): 382 nM

Kd ([4]; source organism: Homo sapiens): 8.3 nM
Sequence: FLDEFMEAV

Sequence: FLLSLVEFF
Kd [5, 31]: 0.816 nM

Sequence: FRRLRKGSI
Kd [3, 31]: 3.01 nM

Sequence: FSQEEAKLF
Kd ([13]; source organism: Yersinia pestis Antiqua): 2480 nM

Kd [14, 38]: ≥ 20000 nM
Kd [15]: 692 nM
Kd [13, 38]: ≥ 20000 nM
Sequence: FSSQALVLI

Sequence: GEMCEDTVTY
Kd [1, 30]: 35.4 nM
Kd [12, 30]: 918 nM
Kd [2, 30]: 104 nM

Sequence: GLLDVTDNV
Kd ([16]; source organism: Mycobacterium tuberculosis): 486 nM
Kd [17]: 3 nM

Sequence: GVFPVSIPI
Kd [6, 36]: 44.5 nM

Sequence: GVIMPNGSY
Kd ([18]; source organism: West Nile virus): 1990 nM

Sequence: IENLEYTVVV
Kd [12, 30]: 157 nM

Sequence: ITYPKALVF
Kd [6, 31]: 3.02 nM

Sequence: KIWGRKSWPL
Kd [3, 39]: 382 nM

Sequence: KLFNIAQRI
Kd [6, 31]: 1.58 nM

Kd ([14]; source organism: Homo sapiens): ≥ 20000 nM
Kd [19]: ≥ 20000 nM
Kd [20]: ≥ 20000 nM
Kd [21]: ≥ 20000 nM
Kd [22]: ≥ 20000 nM
Kd [23]: ≥ 20000 nM
Sequence: KMFTYLMES

Sequence: KMLDPRQGL
Kd [16, 40]: ≥ 10000 nM
Kd [18, 40]: ≥ 20000 nM
Kd [24, 40]: 808 nM

Sequence: KTWGKAKIV
Kd [6, 35]: 1260 nM

Sequence: LAAVSVSPL
Kd [25, 36]: 125 nM

Sequence: LAKKSYVVF
Kd [5, 33]: 97.3 nM

Sequence: LEADYVESM
Kd [5, 31]: 434 nM

Sequence: LEKASLIEV
Kd [1, 35]: ≥ 77900 nM
Kd [12, 35]: 1030 nM

Sequence: LETLLLLTLL
Kd [12, 36]: 101 nM

Sequence: LGKKKTPRM
Kd [3, 36]: 378 nM

Sequence: LIALSVLAVL
Kd [4, 32]: 2780 nM

Sequence: LLSEMLNKEY
Kd [7, 41]: 511 nM
Kd [8, 41]: 701 nM
Kd [9, 41]: 446 nM
Kd [6, 41]: ≥ 38600 nM
Kd [10, 41]: 15800 nM
Kd [11, 41]: 10900 nM

Sequence: LMGFRNSAL
Kd [3, 31]: 1100 nM

Sequence: LMTGTLAVFL
Kd [3, 37]: 1700 nM

Sequence: LNRRRRTAG
Kd [3, 36]: 739 nM

Sequence: LPVCAPSSA
Kd ([25]; source organism: Hepatitis B virus): 115 nM

Sequence: LSASVFYRG
Kd [5, 31]: 295 nM

Sequence: LVRHYFRYI
Kd [5, 31]: 158 nM

Sequence: NEGIMAVGL
Kd [12, 30]: 2260 nM
Kd [2, 30]: 1540 nM

Sequence: NEMGLLETTK
Kd [1, 37]: 1690 nM
Kd [2, 37]: ≥ 20700 nM

Sequence: NEPEDIDCW
Kd [1, 36]: 1080 nM
Kd [2, 36]: 870 nM

Sequence: NPTTLTASL
Kd ([25]; source organism: Dengue virus 4 Dominica/814669/1981): 57.3 nM

Sequence: NRRKRSVTM
Kd [3, 37]: 6.72 nM

Sequence: NVFKAMETF
Kd [5, 31]: 22.8 nM

Sequence: PNERRAWNFL
Kd [6, 30]: ≥ 25300 nM

Sequence: QEEHKETWHY
Kd [1, 30]: 685 nM
Kd [2, 30]: 422 nM

Sequence: QIAMTDTTPF
Kd [5, 37]: 7.04 nM

Sequence: QMANGIALGL
Kd [5, 35]: 191 nM

Sequence: RELKCGSGIF
Kd [1, 37]: 54.8 nM
Kd [2, 37]: 151 nM

Sequence: RRGLSQFTQ
Kd [26]: ≥ 20000 nM

Sequence: RVIEVLQRA
Kd ([4]; source organism: HIV-1 M:B_MN): 25 nM

Sequence: SAVPVDWVPT
Kd [6, 37]: 18600 nM

Sequence: SEGIFSPSEL
Kd [1, 39]: 66.3 nM
Kd [12, 39]: 5.6 nM
Kd [2, 39]: 77.5 nM

Sequence: SKKTRISDL
Kd ([3]; source organism: Cowpox virus): 2.76 nM

Sequence: SLGCKPLTM
Kd [3, 39]: 169 nM

Sequence: SLLRKFLYC
Kd [3, 31]: 701 nM

Sequence: SLQQRLEDL
Kd [3, 31]: 158 nM

Sequence: SLSAVSVHI
Kd [6, 31]: 33.9 nM

Sequence: SMFTLRHII
Kd [3, 31]: 1.81 nM
Kd [6, 31]: 82.8 nM

Sequence: SPMGKLTFF
Kd [3, 31]: 262 nM

Sequence: TPMLRHSIEN
Kd [25, 36]: 507 nM

Sequence: TPQDNQLAYV
Kd [27]: 14600 nM
Kd [25, 37]: 330 nM

Sequence: TQVPFCSHHF
Kd [5, 36]: 2.37 nM

Sequence: TTDVKAAVI
Kd [7, 42]: 10400 nM
Kd [8, 42]: ≥ 23700 nM
Kd [9, 42]: 955 nM
Kd [6, 42]: ≥ 77800 nM
Kd [10, 42]: ≥ 77900 nM
Kd [11, 42]: ≥ 72200 nM

Sequence: TTWALCESI
Kd [6, 37]: 293 nM

Sequence: VCLSGEGWPY
Kd [6, 43]: ≥ 26100 nM
Kd [28, 43]: ≥ 70300 nM
Kd [29, 43]: ≥ 70000 nM
Kd [10, 43]: ≥ 69700 nM
Kd [11, 43]: ≥ 33200 nM

Sequence: VEMGEAAGIF
Kd [1, 36]: 39.2 nM
Kd [12, 36]: 1150 nM
Kd [2, 36]: 592 nM

Kd ([4]; source organism: Triticum aestivum): 58 nM
Sequence: VLQQSTYQL

Sequence: VYMDAVFEY
Kd [18, 44]: ≥ 20000 nM
Kd [24, 44]: 600 nM

Sequence: WELVDKERNL
Kd ([12]; source organism: Dengue virus 2 Peru/IQT2913/1996): 222 nM

Sequence: WELVDRERNL
Kd [12, 36]: 116 nM

Sequence: YLLSLFSTL
Kd [3, 31]: 4.02 nM

Sequence: YLMLLFAAM
Kd [3, 31]: 138 nM

Sequence: YLRTKPASA
Kd [3, 31]: 1.48 nM

Sequence: YSNRNRFLY
Kd [7, 45]: 0.588 nM
Kd [8, 45]: 0.453 nM
Kd [9, 45]: 2.9 nM
Kd [28, 45]: 3040 nM
Kd [29, 45]: 5690 nM
Kd [10, 45]: 1470 nM

Sequence: YTTTIKPVSY
Kd [7, 45]: 31.6 nM
Kd [8, 45]: 1020 nM
Kd [9, 45]: 41.6 nM
Kd [28, 45]: ≥ 70300 nM
Kd [29, 45]: ≥ 70000 nM
Kd [10, 45]: 878 nM
